In the series the test system is MS2 coat protein. The series can be described thus: apparent KD of MS2 coat protein; designed switch direction (-1 OFF switch, 1 ON switch): 1; higher = weaker reporter binding. Summed up: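 For each design, the apparent KD is the median over clusters of curves fitted to normalised cluster fluorescence. Clusters held RNA switches with common flanks, transcribed on Illumina chips by stalled E. coli RNA polymerase. These were titrated with SNAP-549-labelled MS2 coat protein, doubling from 0.7 or 1.5 nM to 3 µM, without input, with 200 uM small-molecule ligand, or with an oligonucleotide input.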

Where [1] appears, read: input ligand: microRNA oligo, concentration not stated.
[2] abbreviates: Eterna round: R95, input ligand: FMN 200 uM.
Where [3] appears, read: Eterna round: R95, input ligand: microRNA oligo, concentration not stated.
Setting [4] is: Eterna round: R95, input ligand: none.

The source of these data is the supplement of paper PMC9170038.

Regarding “GUGGCGGGUUGAGGAUAUUGGUUGCCGCUGUUUUACAUGAGGAUCACCCAUGUGGGUUGCGGUUUCGAGAAGGGAGGUUGCUGG [salish99_SSNG2_r04_055] (Eterna round: R96, puzzle: Same State NG 2)”, the “apparent KD of MS2 coat protein” value reads like this: (input ligand: FMN 200 uM) 14.2 nM; under setting [1], 11.7 nM; (input ligand: none) 17.6 nM.
On to “GGGAGACCUCAAGGAUAUGCUACCGUUUCGGUAGCAGAAGGUGAUCACAUGAGGAUCACCCAUGUAUGCAUGCGUGAGCGUGCU [JL SSNG1 3.58] (Eterna round: R96, puzzle: Same State NG 1)”, for which the “apparent KD of MS2 coat protein” value is, setting by setting: (input ligand: FMN 200 uM) 79.4 nM; under setting [1], 11.6 nM; (input ligand: none) 67.8 nM.
In the case of “GGAGCCGGCACCGAGGAUAUUCAUAUUAAAACAUGAGGAUCACCCAUGUACCGGAGAACCGGUUGGGAGAAGGCGGAUCGGCUCG [Xeonanis - 24] (puzzle: Same State 2)”, the “apparent KD of MS2 coat protein” value under setting [2] was determined as 35.4 nM, the “apparent KD of MS2 coat protein” value under setting [3] worked out at 333 nM and the “apparent KD of MS2 coat protein” value under setting [4] was found to be 596 nM.
As to “GGUAGGUUACUACCAACACAUGAGGAUCACCCAUGUUUUGGGAAGGAUAUGGUACCUAUUUGGUACCAGAAGGUCCAGUUAAUG [salish99_SSNG3_r04_701] (Eterna round: R96, puzzle: Same State NG 3)”, the “apparent KD of MS2 coat protein” value stood at 87 nM (input ligand: FMN 200 uM), 161 nM under setting [1] and 122 nM (input ligand: none).
For “UAUUCAUUCAGAGGAUAUUGUUUAUCUCUAUUUCAAGAAGGCUGAUUUUACUACUUACUUAUGAAACAUGAGGAUCACCCAUGU [JR_SSNG1_Sub020] (Eterna round: R96, puzzle: Same State NG 1)”, the “apparent KD of MS2 coat protein” value under setting [1] is 18.7 nM.
Take “UUAAGCCACGGGCAGGAUAUGUGUUAAAAUACAUGAGGAUCACCCAUGUGCAGGUGUAACACCUGACAGAAGGGCCAAUCGCGGC [Soondi - 2] (puzzle: Same State 2)”: the “apparent KD of MS2 coat protein” value turned out to be 23.7 nM under setting [2], 43 nM under setting [3] and 56.4 nM under setting [4].
For “UGUUAGUAGUGAGGAUAUACAUACACCUUACAUGAGGAUCACCCAUGUUUUAAGAUUGAUAGAUAGUAGAAGGCACAUGAUGAU [JR_SSNG2_Sub042] (Eterna round: R96, puzzle: Same State NG 2)”, the “apparent KD of MS2 coat protein” value under setting [1] was determined as 38.2 nM.
In the case of “UGAUGCCCAUCAGGAUAUGGGCCCAUGAGGAUCACCCAUGUAAAGUAGGUCCAACAGGGCCAAGUCUAGAAGGGAUGGCGGGCA [malcolm 80 ssNG2 F5+F7.1] (Eterna round: R96, puzzle: Same State NG 2)”, the “apparent KD of MS2 coat protein” value by setting is: (input ligand: FMN 200 uM) 163 nM; under setting [1], 59.1 nM; (input ligand: none) 190 nM.
With “AGUCCAGCCUGAGCUGGACAAAAGCAUGUACAUGAGGAUCACCCAUGUUCAUGUACAAGCUUUUUGCUCGUCUUAGU [salish99_208a_r3_061] (puzzle: Sensor for hsa-mir-208a)”, the “apparent KD of MS2 coat protein” value reads like this: under setting [2], 481 nM; under setting [3], 15.1 nM; under setting [4], 528 nM.
In the same order, the values of “ACUUGCUUUUUGCUCGUAUAUUGUCCGUUACAUGAGGAUCACCCAUGUGUAUAUUAUGUGUUGUUUUUGAUACGUGU [JR_SHM208A_Sub069] (puzzle: Sensor for hsa-mir-208a)” are 36.2 nM, 33.9 nM and 43.7 nM.
In the same order, the values of “AGUCCAGCCUGAGCUGGACAAAAGCAUGUACAUGAGGAUCACCCAUGUCAUGUACAAGCUUUUUGCUCGUCUUGAUA [Zipper 49 - 8] (puzzle: Sensor for hsa-mir-208a)” are 416 nM, 16.7 nM and 435 nM.
Take “GCGGAGAGGUAAGGAUAUCCAUGGAAGACACAUGAGGAUCACCCAUGUGGGAGGGAAACCAGGAGGGAGAAGGUACCGGGACGC [AK SSNG2-V2-21] (Eterna round: R96, puzzle: Same State NG 2)”: the “apparent KD of MS2 coat protein” value by setting is: (input ligand: FMN 200 uM) 11.5 nM; under setting [1], 10.4 nM; (input ligand: none) 13.2 nM.
With “CCGAUGGUAUACUAGGAUAUGGGCGCCCUUACAUGAGGAUCACCCAUGUUAUCACAAAUCCGCGGCCAGAAGGAGUUCAUGGGAG [Ustiririra] (Eterna round: R96, puzzle: Same State 2)”, the “apparent KD of MS2 coat protein” value by setting is: (input ligand: FMN 200 uM) 165 nM; under setting [1], 173 nM; (input ligand: none) 138 nM.
On the same counts, the results for “GCUAGAAAUAAAGCCAACAUGAGGAUCACCCAUGUAUGUUGGUAGGAUAUCGUAUGCAAAGCAUACGAGAAGGGCUAAACUAGC [Mat - Same State NG 3 - JL Mod - D18] (Eterna round: R96, puzzle: Same State NG 3)” are 91.6 nM, 77.5 nM and 93.7 nM.
For the sequence “CGUCCGGCCUGUGCUGGCCGGUGGCUUGUACAUGAGGAUCACCCAUGUUCUUGUGCUGGCUUUUUGCUCGUCUUGUG [salish99_mir208a_021] (puzzle: Sensor for hsa-mir-208a)”, the “apparent KD of MS2 coat protein” value under setting [2] amounted to 37 nM, the “apparent KD of MS2 coat protein” value under setting [3] was 18.9 nM and the “apparent KD of MS2 coat protein” value under setting [4] worked out at 43.8 nM.
For “UACAAUCUAUCUGAGGAUAUCAUGAAUAUAACAUGAGGAUCACCCAUGUGCAGGAAAACUGCAUAUGAGAAGGCAGAUAGAUUGU [salish99_ss2_r3_068] (puzzle: Same State 2)”, the “apparent KD of MS2 coat protein” value under setting [2] worked out at 61.3 nM, the “apparent KD of MS2 coat protein” value under setting [3] came out at 49.2 nM and the “apparent KD of MS2 coat protein” value under setting [4] stood at 109 nM.
Consider “UGGUACAUGGGAGGAUAUCUCAUGGUGACAUGAGGAUCACCCAUGUAGUUGGAGCCGAAAGGCUGAGAGAAGGCCCAUGUACCU [JL SSNG1 3.75] (Eterna round: R96, puzzle: Same State NG 2)”, for which the “apparent KD of MS2 coat protein” value runs as follows: (input ligand: FMN 200 uM) 59.4 nM; under setting [1], 98 nM; (input ligand: none) 78.5 nM.
On the same counts, the results for “UGUUGUAUUACAGGAUAUCUAUUGUUUUCAUUUAGAGAAGGGUAUUCACAUGAGGAUCACCCAUGUAUAUACGAGGAAGUUGUG [JMF's solution 78] (Eterna round: R96, puzzle: Same State NG 1)” are 42.1 nM, 33.1 nM and 39.9 nM.
Take “GAAUAGUUGAGAGGAUAUGUAUUAUUGUAGGAUACAGAAGGUUUUAACAUGAGGAUCACCCAUGUAGGACUAUAUAUGUGAAUA [Parity 98 - Jieux - Same State NG 1] (Eterna round: R96, puzzle: Same State NG 1)”: the “apparent KD of MS2 coat protein” value under setting [1] is 11.7 nM.
Regarding “AGUAAGAGUCAAGGAUAUGCUACCGUUUCGGUAGCAGAAGGUGAUCACAUGAGGAUCACCCAUGUAUAAAUGCGUGAGCGUGCU [JL SSNG1 3.63] (Eterna round: R96, puzzle: Same State NG 1)”, the “apparent KD of MS2 coat protein” value stood at 679 nM (input ligand: FMN 200 uM), 28.2 nM under setting [1] and 59 nM (input ligand: none).
Turning to “UCUUGGUUUUUGCUCGUUUUUUGUGUUGAACAUGAGGAUCACCCAUGUAUUGUACAAUCCGGUUUGAUGAUGGUCCA [JMF 47] (Eterna round: R96, puzzle: Sensor for hsa-mir-208a)”, the “apparent KD of MS2 coat protein” value runs as follows: (input ligand: FMN 200 uM) 125 nM; under setting [1], 55.5 nM; (input ligand: none) 115 nM.
